Results on 2 substances are retold here after patent US20020173629A1.

A word on the IC50: it is the concentration that inhibits the measured activity by half. For orientation: Kd means the free concentration of one partner at which half of the binding sites on the other are occupied at equilibrium, for simple one-to-one binding. Low values mean higher affinity, high ones lower affinity.

For assay [1], the target named is human EGF-r expressed on the surface of human carcinoma cells (A431, SW948) (human) (UniProt P00533). The assay can be described thus: cell-based or functional assay.
Assay [2] has the same target. Kind of assay: inhibition of [125I]EGF (0.1 nM) binding to A431 cells.
For assay [3] the target is unchanged. Kind of assay: inhibition of [125I]EGF binding to SW948 cells.
Assay [4] has as its target Soluble EGF-r purified from A431 cell membranes (Sigma, E-3641) (human) (UniProt P00533). Kind of assay: BIAcore, solid phase, antigen immobilised at 228 RU. For orientation: SPR reads the build-up and loss of mass on a sensor chip optically.

The substance murine monoclonal antibody 528 gave an IC50 of inhibition of A431 cell proliferation in assay [1] of 0.66 nM. In addition, the IC50 in assay [2] turned out to be 15.2 nM.

“E7.6.3 antibody (secreted by the hybridoma E7.6.3)”: in assay [1], the IC50 of inhibition of A431 cell proliferation was determined as 0.125 nM, the inhibition of EGF-induced tyrosine phosphorylation of EGFr in A431 cells was found to be 133 nM and the inhibition of SW948 cell growth in vitro came out at 100%. In assay [3], the IC50 was determined as 0.9 nM. This substance yielded a dissociation constant (Kd) in assay [4] of 0.057 nM. Moreover, the IC50 in assay [2] was determined as 3 nM.
